B2: BCMA-Fc antigen (Fc fusion)
chain: AGQCSQNEYFDSLLHACIPCQLRCSSNTPPLTCQRYCNASVTNSVKG
notes: Bought reagent; also called BCMA fc fusion protein; recombinant BCMA-Fc; not shown: Fc region

Legend:
[1] = molecular target: T1, BCMA (recombinant, form not given) (UniProt Q02223 1-54, limits assumed); assay: affinity assay, 1:1 binding fit; instrument and sample format not stated
T1 construct: also called BCMA substrate; Bio-BCMA
T1 sequence (looked up): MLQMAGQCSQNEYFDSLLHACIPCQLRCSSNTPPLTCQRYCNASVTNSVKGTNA

BCMA-10 CAR = molecular target: T2, BCMA-10 CAR; assay: CAR-expressing T cells incubated with recombinant BCMA-Fc; staining of CAR+ cells
T2 construct: also called 139109 Full CAR; EG63-98LB

BCMA-Fc antigen = molecular target: B2; assay: flow cytometry of CAR-transduced JNL cells stained with BCMA-Fc antigen
Method: Jurkat-NFAT-luciferase (JNL) cells transduced with BCMA CAR constructs were evaluated for activation in response to BCMA-expressing target cell lines. Small-scale viral supernatant samples were generated in HEK293T cells for transduction of JNL cells. On Day 3 following transduction, BCMA CAR-transduced JNL cells were incubated with target cells at an effector-to-target (E:T) ratio of 6:1. Target cell lines were: K562-BCMA (engineered to stably express BCMA), K562 (parental line), and BCMA positive multiple myeloma cell lines, NCI-H929 and RPMI 8226. JNL activation was measured using Bright-Glo substrate (Promega) on Day 4. CAR expression on transduced JNL was assessed on Day 7 with BCMA-Fc antigen and Biotin-Protein L reagent (Table 7).

B1: BCMA-4NP (sample in the affinity and competition assays) (scFv)
scFv: QVQLVQSGAEVKKPGSSVKVSCKASGGTFSNYWMHWVRQAPGQGLEWMGATYRGHSDTYYNQKFKGRVTITADKSTSTAYMELSSLRSEDTAVYYCARGAIYNGYDVLDNWGQGTLVTVSSGGGGSGGGGSGGGGSGGGGSDIQMTQSPSSLSASVGDRVTITCSASQDISNYLNWYQQKPGKAPKLLIYYTSNLHSGVPSRFSGSGSGTDFTLTISSLQPEDFATYYCQQYRKLPWTFGQGTKLEIKR
notes: also called BCMA-4NP control sample
[1]
  Kd: 0.1 nM
  koff: 0.000172 s⁻¹
  kon: 1.58e+06 M⁻¹ s⁻¹

## B2
BCMA-10 CAR
  binding result: binds

B3: BCMA-15 CAR (other)
chain: EVQLVESGGGLVQPGGSLRLSCAVSGFALSNHGMSWVRRAPGKGLEWVSGIVYSGSTYYAASVKGRFTISRDNSRNTLYLQMNSLRPEDTAIYYCSAHGGESDVWGQGTTVTVSSASGGGGSGGRASGGGGSEIVLTQSPGTLSLSPGERATLSCRASQSIGSSSLAWYQQKPGQAPRLLMYGASSRASGIPDRFSGSGSGTDFTLTISRLEPEDFAVYYCQQYAGSPPFTFGQGTKVEIKTTTPAPRPPTPAPTIASQPLSLRPEACRPAAGGAVHTRGLDFACDIYIWAPLAGTCGVLLLSLVITLYCKRGRKKLLYIFKQPFMRPVQTTQEEDGCSCRFPEEEEGGCELRVKFSRSADAPAYKQGQNQLYNELNLGRREEYDVLDKRRGRDPEMGGKPRRKNPQEGLYNELQKDKMAEAYSEIGMKGERRRGKGHDGLYQGLSTATKDTYDALHMQALPPR
notes: also called 139114 Full CAR; PY43-48LB
BCMA-Fc antigen
  % CAR+ (BCMA-Fc detection): 36.9%

B4: BCMA-4NP tool CAR (other, not shown: a dimerising Fc or GST)
chain: QVQLVQSGAEVKKPGSSVKVSCKASGGTFSNYWMHWVRQAPGQGLEWMGATYRGHSDTYYNQKFKGRVTITADKSTSTAYMELSSLRSEDTAVYYCARGAIYNGYDVLDNWGQGTLVTVSSGGGGSGGGGSGGGGSGGGGSDIQMTQSPSSLSASVGDRVTITCSASQDISNYLNWYQQKPGKAPKLLIYYTSNLHSGVPSRFSGSGSGTDFTLTISSLQPEDFATYYCQQYRKLPWTFGQGTKLEIKR
notes: Tool CAR with humanized murine anti-BCMA scFv (VH and VL from WO2012/163805); also called 126021
BCMA-Fc antigen
  % CAR+ (BCMA-Fc detection): 28.3%

Source: US20160046724A1 (Novartis, published 2016)
